Literature values, collected in publication PMC4860950.

How the values were obtained:
CD2 (Mus musculus) = CD2 (Mus musculus) (UniProt P08920)
CD2 (Homo sapiens) = CD2 (Homo sapiens) (UniProt P06729)
CD244 (Homo sapiens) = CD244 (Homo sapiens) (UniProt Q9BZW8)
Chain of UniProt Q9BZW8 (Q9BZW8 22-229): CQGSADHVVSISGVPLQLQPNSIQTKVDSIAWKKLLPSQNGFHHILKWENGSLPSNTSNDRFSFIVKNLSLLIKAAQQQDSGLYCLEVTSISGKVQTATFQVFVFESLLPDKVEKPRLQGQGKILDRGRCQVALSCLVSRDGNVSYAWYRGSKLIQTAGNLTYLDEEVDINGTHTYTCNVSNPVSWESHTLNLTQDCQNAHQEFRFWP

Chain of UniProt P08920 (P08920 23-203): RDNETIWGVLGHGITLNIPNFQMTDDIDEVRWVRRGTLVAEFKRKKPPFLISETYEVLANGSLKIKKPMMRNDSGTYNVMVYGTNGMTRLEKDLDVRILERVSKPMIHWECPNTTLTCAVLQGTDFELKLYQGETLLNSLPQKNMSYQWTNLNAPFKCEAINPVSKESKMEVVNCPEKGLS
Chain of UniProt P06729 (P06729 25-209): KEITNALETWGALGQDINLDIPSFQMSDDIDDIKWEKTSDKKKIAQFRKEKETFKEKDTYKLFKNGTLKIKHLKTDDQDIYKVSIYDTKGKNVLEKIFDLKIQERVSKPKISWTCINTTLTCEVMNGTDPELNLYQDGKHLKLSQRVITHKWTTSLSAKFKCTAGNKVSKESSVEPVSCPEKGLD

Row | Kd (CD2 (Mus musculus)) | Kd (CD2 (Homo sapiens)) | Kd (CD244 (Homo sapiens)) | Substance
1 | 90 µM | – | – | CD48 (from UniProt P18181)
2 | – | 100 µM | 8 µM | CD48 (from UniProt P09326)
